This is an account of results in US20030049644.

The target in this data set is Hepatocyte growth factor/scatter factor (HGF) (UniProt P14210+P14210). Description: FP. To be noted: 2'-F pyrimidines.

pKd: −log10 of the molar value.

Hepatocyte growth factor/scatter factor (HGF), sequence (P14210 32-494, chain 1 of 2): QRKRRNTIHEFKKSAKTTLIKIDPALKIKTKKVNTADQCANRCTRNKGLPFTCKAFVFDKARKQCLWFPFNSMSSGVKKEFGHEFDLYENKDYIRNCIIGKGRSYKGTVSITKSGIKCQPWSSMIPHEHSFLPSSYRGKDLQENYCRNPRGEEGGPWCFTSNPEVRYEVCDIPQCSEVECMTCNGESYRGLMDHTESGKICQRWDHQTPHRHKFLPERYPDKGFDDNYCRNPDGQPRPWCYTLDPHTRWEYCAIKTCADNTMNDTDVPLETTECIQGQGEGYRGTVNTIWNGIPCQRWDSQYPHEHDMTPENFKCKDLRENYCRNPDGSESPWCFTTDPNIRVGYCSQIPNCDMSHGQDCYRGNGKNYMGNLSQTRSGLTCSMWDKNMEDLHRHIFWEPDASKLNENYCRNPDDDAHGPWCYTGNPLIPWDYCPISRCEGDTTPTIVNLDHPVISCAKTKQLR
Hepatocyte growth factor/scatter factor (HGF), sequence (P14210 495-728, chain 2 of 2): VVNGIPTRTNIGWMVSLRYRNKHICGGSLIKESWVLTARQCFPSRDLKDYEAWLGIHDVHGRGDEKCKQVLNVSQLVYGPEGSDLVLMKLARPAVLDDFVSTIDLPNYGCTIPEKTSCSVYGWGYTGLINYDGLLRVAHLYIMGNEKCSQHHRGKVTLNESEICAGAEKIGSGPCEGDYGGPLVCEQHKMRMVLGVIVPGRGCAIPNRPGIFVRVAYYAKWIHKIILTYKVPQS

“GAGAGNUCCUAUUUAUGACAUCCCAUGCCCCCA [Tr65]” showed a pKd of 8.85.
